Source: patent US6897295 (MOCHIDA PHARMACEUTICAL, dated 2005)
Each block holds one binder with its values, some of them ahead of it.

Experiments:
[1] = target: T1, rat Fas ligand (encoded by clone pTN24-15) (rat, UniProt P36940 1-278); assay: flow cytometry on d10S cells, phycoerythrin-labeled streptoavidin
T1 construct: Full-length type II membrane protein of 278 residues; It stood on d10S cells and on COS-7 cells transfected with pTN24-15; It was also used as NP-40 lysate of these cells (immunoprecipitation) and as protein purified from the d10S-12 membrane fraction (about 40 kD); also called Fas ligand on the d10S cells; COS/pTN24-15
T1 sequence: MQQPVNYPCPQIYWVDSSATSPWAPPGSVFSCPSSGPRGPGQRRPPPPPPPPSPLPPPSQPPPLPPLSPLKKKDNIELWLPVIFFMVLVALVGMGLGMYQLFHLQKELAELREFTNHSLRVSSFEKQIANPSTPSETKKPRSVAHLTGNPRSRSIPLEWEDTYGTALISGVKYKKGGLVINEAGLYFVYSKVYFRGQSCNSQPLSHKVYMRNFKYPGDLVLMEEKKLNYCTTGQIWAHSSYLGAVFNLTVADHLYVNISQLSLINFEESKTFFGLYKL
Description: PC60-d10S cells (to be referred to as "d10S" hereinafter; Rouvier E. et al., J. Exp. Med., vol. 177, pp. 195–200, 1993) were washed with a staining solution (phosphate-buffered saline (to be referred to as "PBS" hereinafter) containing 2% FCS and 0.02% NaN₃). About 1 ×10^6 of the cells were suspended in 50 μl of the staining solution supplemented with 5 μg/ml of rat anti-mouse FcγRII blocking antibody (Pharmingen). This suspension was dispensed into wells of a 96 well plate and incubated for 10 minutes on an ice bath. A 20 μg/ml solution of the biotinylated mFas-Fc was dispensed into wells of the resulting plate in 50 μl portions, and the incubation was continued for additional 30 minutes on an ice bath. […]
After washing the cells with the staining solution, cytometric analysis was carried out using FACScan (Becton Dickinson). As the result, a slight shift in the fluorescence intensity was observed which confirmed that said cells were stained with the biotinylated mFas-Fc (see FIG. 1(A). Control was expressed as an open area, and staining before 4 hours of treatment with PMA and ionomycin as a stippled area and staining after 4 hours of treatment with PMA and ionomycin as a closed area.

[2] = target: T2, human Fas antigen on WC8A / WC8 cells (human, UniProt P25445 26-335); assay: concluded from cytotoxicity of the culture supernatant on cells expressing human Fas antigen
T2 construct: whole, on cells
T2 sequence (looked up): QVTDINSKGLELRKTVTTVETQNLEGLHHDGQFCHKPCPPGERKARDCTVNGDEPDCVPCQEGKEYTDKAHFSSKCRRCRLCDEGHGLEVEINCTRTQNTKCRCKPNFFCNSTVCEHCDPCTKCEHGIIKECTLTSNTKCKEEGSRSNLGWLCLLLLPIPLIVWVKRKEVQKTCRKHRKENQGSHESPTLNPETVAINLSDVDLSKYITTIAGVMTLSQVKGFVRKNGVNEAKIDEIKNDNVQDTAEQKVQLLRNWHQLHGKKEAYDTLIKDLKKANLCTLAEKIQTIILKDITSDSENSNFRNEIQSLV

[3] = target: T3, mouse Fas antigen on W4 cells (mouse, UniProt P25446 22-327); assay: concluded from cytotoxicity on W4 cells and its inhibition by mFas-Fc
T3 construct: whole, on cells; also called Fas antigen-expressing W4 cells
T3 sequence (looked up): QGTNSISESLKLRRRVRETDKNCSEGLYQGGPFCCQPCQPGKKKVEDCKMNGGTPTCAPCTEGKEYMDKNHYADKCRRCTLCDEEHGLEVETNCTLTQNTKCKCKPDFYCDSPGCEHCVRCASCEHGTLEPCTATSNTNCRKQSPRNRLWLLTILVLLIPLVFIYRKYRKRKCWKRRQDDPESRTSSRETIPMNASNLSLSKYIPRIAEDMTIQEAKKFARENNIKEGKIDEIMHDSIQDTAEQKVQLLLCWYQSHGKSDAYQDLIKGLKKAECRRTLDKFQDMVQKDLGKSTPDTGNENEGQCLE
Description: Cytotoxic activity of recombinant cells was measured in the same manner as described in Inventive Example 8, using the transformed COS cells (COS/pEF-MFLW4F) obtained in the above step (2) as the effector cells and 10^6 cells-of WR19L or W4 as the target cells. The W4 is a transformant which acquired mouse Fas antigen-expressing ability through the transformation of mouse WR19L cells. That is, 10^6 cells of WR19L or W4 were labeled with ^51Cr by culturing the cells at 37° C. for 2 hours in RPMI 1640 medium containing 20 μCi of (^51Cr) sodium chromate (Amersham).
The thus ^51Cr-labeled cells (1×10^4) were mixed with COS/pEF-MFLW4F cells at various mixing ratios and cultured at 37° C. for 4 hours, subsequently measuring cytotoxic activity using released ^51Cr as an index. […] In addition, the cytotoxicity of COS/pEF-MFLW4F cells was inhibited by the addition of 20 μg/ml of the chimera protein containing the extracellular domain of mouse Fas antigen (mFas-Fc) prepared in Inventive Example 1, but was not inhibited by the addition of the soluble type human TNF receptor (hTNFRβ-Fc).

[4] = target: T2, human Fas antigen on WC8A / WC8 cells; assay: concluded from cytotoxicity on WC8A cells and its inhibition by hFas-Fc and mFas-Fc
Description: Cytotoxic activity of recombinant cells was measured in the same manner as described in Inventive Example 8, using the COS-7 cells transformed in the above step (2) as the effector cells and 10^6 cells of WR19L or WC8A as the target cells. The WC8A is a transformant which acquired human Fas antigen-expressing ability through the transformation of mouse WR19L cells (Itoh N. et al., *J. Immunol.*, vol. 151, pp. 621–627, 1993).
The thus ^51Cr-labeled cells (1 ×10^4) were mixed with COS/pEX-hFL1 cells at various mixing ratios and cultured at 37° C. for 4 hours, subsequently measuring cytotoxic activity using released ^51Cr as an index.

binding result [1]: no binding
B1: chimera protein of TNF receptor beta and Fc region of human IgG1 (Fc fusion, UniProt P19438 30-211, looked up)
chain: LVPHLGDREKRDSVCPQGKYIHPQNNSICCTKCHKGTYLYNDCPGPGQDTDCRECESGSFTASENHLRHCLSCSKCRKEMGQVEISSCTVDRDTVCGCRKNQYRHYWSENLFQCFNCSLCLNGTVHLSCQEKQNTVCTCHAGFFLRENECVSCSNCKKSLECTKLCLPQIENVKGTEDSGTT
modifications: biotinylated with NHS-LC-biotin in the flow cytometry; unlabelled in the cytotoxicity assays
notes: extracellular domain; Control fusion protein; also called hTNFRβ-Fc; soluble type human TNF receptor; not shown: human IgG1 Fc region (hinge, CH2, CH3, as in pFas-FcII)

B2: extracellular domain of the human Fas ligand secreted by transformant COS-1/pM1070 (ligand)
chain: QLFHLQKELAELRESTSQMHTASSLEKQIGHPSPPPEKKELRKVAHLTGKSNSRSMPLEWEDTYGIVLLSGVKYKKGGLVINETGLYFVYSKVYFRGQSCNNLPLSHKVYMRNSKYPQDLVMMEGKMMSYCTTGQMWARSSYLGAVFNLTSADHLYVNVSELSLVNFEESQTFFGLYKL
notes: Expressed behind the signal peptide of the human Fas antigen, which is not counted here; Tested as culture supernatant; also called culture supernatant of COS-1/pM1070
binding result [2]: binds

B3: mouse Fas ligand (encoded by pEF-MFLW4) (ligand)
chain: MQQPMNYPCPQIFWVDSSATSSWAPPGSVFPCPSCGPRGPDQRRPPPPPPPVSPLPPPSQPLPLPPLTPLKKKDHNTNLWLPVVFFMVLVALVGMGLGMYQLFHLQKELAELREFTNQSLKVSSFEKQIANPSTPSEKKEPRSVAHLTGNPHSRSIPLEWEDTYGTALISGVKYKKGGLVINETGLYFVYSKVYFRGQSCNNQPLNHKVYMRNSKYPEDLVLMEEKRLNYCTTGQIWAHSSYLGAVFNLTSADHLYVNISQLSLINFEESKTFFGLYKL
notes: Full-length protein of 279 residues on transfected COS cells; In the western blots it stood as reduced SDS extract of these cells; also called COS/pEF-MFLW4F
binding result [3]: binds

B4: human Fas ligand (encoded by pEX-hFL1) (ligand)
chain: MQQPFNYPYPQIYWVDSSASSPWAPPGTVLPCPTSVPRRPGQRRPPPPPPPPPLPPPPPPPPLPPLPLPPLKKRGNHSTGLCLLVMFFMVLVALVGLGLGMFQLFHLQKELAELRESTSQMHTASSLEKQIGHPSPPPEKKELRKVAHLTGKSNSRSMPLEWEDTYGIVLLSGVKYKKGGLVINETGLYFVYSKVYFRGQSCNNLPLSHKVYMRNSKYPQDLVMMEGKMMSYCTTGQMWARSSYLGAVFNLTSADHLYVNVSELSLVNFEESQTFFGLYKL
notes: Full-length protein on COS-7 cells (COS/pEX-hFL1) or FDC-P1 cells (FLh1); In the western blots it stood as reduced SDS extract of the transfected COS cells; also called COS/pEX-hFL1; human Fas ligand-expressing COS cells
binding result [4]: binds

binding result [1]: binds
B5: chimera protein of the extracellular domain of mouse Fas (mFas) antigen and the Fc region of human IgG1 (hIgG1) (Fc fusion, UniProt P25446 22-169, looked up)
chain: QGTNSISESLKLRRRVRETDKNCSEGLYQGGPFCCQPCQPGKKKVEDCKMNGGTPTCAPCTEGKEYMDKNHYADKCRRCTLCDEEHGLEVETNCTLTQNTKCKCKPDFYCDSPGCEHCVRCASCEHGTLEPCTATSNTNCRKQSPRNR
modifications: biotinylated with NHS-LC-biotin in the flow cytometry; unlabelled in the other assays
notes: extracellular domain; Made from plasmid pFas-FcII in COS-7 or BTS-1 cells; also called mFas-Fc; biotinylated mFas-Fc; not shown: human IgG1 heavy chain constant region: hinge, CH2 and CH3 domains
